Test results reported in US8652790 (University of Pennsylvania, dated 2014).

B1: PDE(p), peptide of the calmodulin-binding domain of phosphodiesterase (C15S) (peptide)
peptide: QTEKMWQRLKGILRSLVKQ
notes: C15S is used to avoid oxidation; also called PDEs(p)
B2: eNOS(p), peptide of the calmodulin-binding domain of endothelial nitric oxide synthase (peptide)
peptide: RKKTFKEVANAVKISASLMG
notes: Synthetic peptide for ITC and for titration of CaM; The expressed version used for target-domain NMR carries an extra amino-terminal GS
B3: CaMKI(p), peptide of the calmodulin-binding domain of calmodulin kinase I (peptide)
peptide: AKSKWKQAFNATAVVRHMRKLQ
notes: Synthetic peptide for ITC and for titration of CaM; The expressed version used for target-domain NMR carries an extra amino-terminal GS; also called CaMK1p
B4: nNOS(p), peptide of the calmodulin-binding domain of neuronal nitric oxide synthase (peptide)
peptide: KRRAIGFKKLAEAVKFSAKLMGQ
notes: Synthetic peptide for ITC and for titration of CaM

Experiments:
[1] = biological target: T1, calcium-saturated calmodulin (human CaM, GenBank AAD45181) (human, UniProt P0DP23 2-149); experiment: isothermal titration calorimetry, CaM (200 µM) titrated into 5-20 µM peptide, 308 K
[2] = biological target: T1, calcium-saturated calmodulin (human …); experiment: isothermal titration calorimetry, CaM (200 µM) titrated into 5-20 µM peptide, 308 K; footnote c: From Frederick et al.

| Binder | -TΔSbinding^total [1] [kcal/mol] | ΔGbinding^total [1] [kcal/mol] | ΔHbinding^total [1] [kcal/mol] | -TΔSbinding^total [2] [kcal/mol] | ΔGbinding^total [2] [kcal/mol] | ΔHbinding^total [2] [kcal/mol] |
| --- | --- | --- | --- | --- | --- | --- |
| B1 | 8.1 | -9.06 | -17.2 |  |  |  |
| B2 | 6.14 | -11.8 | -17.9 |  |  |  |
| B3 |  |  |  | 16.6 | -11.8 | -28.4 |
| B4 | -0.454 | -12.4 | -11.9 |  |  |  |
